The text below walks through data of the supplement of paper PMC9170038.

The test system of this series is MS2 coat protein. The series can be described thus: apparent KD of MS2 coat protein; designed switch direction (-1 OFF switch, 1 ON switch): -1; higher = weaker reporter binding. The essentials:
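Designed RNA switches with common flanks were made on Illumina chips by stalled E. coli RNA polymerase. Titration with SNAP-549-labelled MS2 coat protein doubled from 0.7 or 1.5 nM up to 3 µM. Apparent KD is each design's median over clusters after curve-fitting normalised fluorescence.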

Setting [1] is: input ligand: microRNA oligo, concentration not stated.
Where [2] appears, read: Eterna round: R95, input ligand: FMN 200 uM.
Setting [3] is: Eterna round: R95, input ligand: microRNA oligo, concentration not stated.
[4] abbreviates: Eterna round: R95, input ligand: none.

For “GGAUUACAUGAGGAUCACCCAUGUGAGGAUAUCGAUGUCCAGUAAUACGUGCGGGACUCGAGAAGGCACUUGGA [salish99-ex1-70] (Eterna round: R96, puzzle: Exclusion 1)”, the “apparent KD of MS2 coat protein” value (input ligand: FMN 200 uM) was 432 nM, the “apparent KD of MS2 coat protein” value under setting [1] turned out to be 80.7 nM and the “apparent KD of MS2 coat protein” value (input ligand: none) was 96.3 nM.

In the case of “UAAUACAAGUAAGGAUUCUACAUGAGGAUCACCCAUGUGCUCGUCUUAUAAAGUACUAUCACGAAAGUGAUAGUACU [Mat - Sensor v3 - turn-off var 1 - Eli Mod - D100] (puzzle: Sensor v3, turn-off variant 1)”, the “apparent KD of MS2 coat protein” value by setting is: under setting [2], 21.8 nM; under setting [3], 199 nM; under setting [4], 22.5 nM.

“CCAUAUAACUGAGGAUAUAAUCGCCACUGACGUUUAGAAGGCAGACAUGAGGAUCACCCAUGUGAUUUCUCAAUAUUAUACAUC [Prohibition 78 - Jieux - Exclusion NG 1] (Eterna round: R96, puzzle: Exclusion NG 1)”: the “apparent KD of MS2 coat protein” value is, setting by setting: (input ligand: FMN 200 uM) 1840 nM; under setting [1], 31.1 nM; (input ligand: none) 245 nM.

“UUAAAUCAUGUAGGAUAUGCAUAGCAAAGCUAUGCAGAAGGACAUGAGGAUCACCCAUGUGCUUGCGUCCGCGUACGGAUGCUA [Mat - Exclusion NG 1 - Mod of JL - D68] (Eterna round: R96, puzzle: Exclusion NG 1)”: the “apparent KD of MS2 coat protein” value is 733 nM (input ligand: FMN 200 uM), 90.5 nM under setting [1] and 138 nM (input ligand: none).

For the sequence “GCGCGGUGAGGAUAUGCGGCGCGCGGGCGCGGGCGGGCGCGGCAGAAGGCACAUGAGGAUCACCCAUGUGGGCG [Prefect Exclusion4] (Eterna round: R97, puzzle: Exclusion 4)”, the “apparent KD of MS2 coat protein” value came to 109 nM (input ligand: FMN 200 uM) and 24.2 nM (input ligand: none).

Regarding “UAUAUAUAGUAAGGAUAUGUAUUUAUGUUAUAAACAGAAGGUACUGACAUGAGGAUCACCCAUGUUUUAGUGUGGGCAUGUAGA [JMF's solution 16] (Eterna round: R96, puzzle: Exclusion NG 1)”, under setting [1], the “apparent KD of MS2 coat protein” value is 76.3 nM.

As to “GAAACCAGAGGAUAUGCGAAUAAAUAAAACUUUUUUUUUUAACAUGAGGAUCACCCAUGUAGAAGGCUGCAAAU [Ex2 #34] (Eterna round: R97, puzzle: Exclusion 2)”, the “apparent KD of MS2 coat protein” value reads like this: (input ligand: FMN 200 uM) 42.2 nM; (input ligand: none) 32.7 nM.

As for “UUGCAGUCGUCAGGAUAUAGUAUUACGGCCUUUCAUUUCUUCAUACAUGAGGAUCACCCAUGUCGCUAGAAGGGAUUAUCGCUU [salish99_ExNG2_r04_107] (Eterna round: R96, puzzle: Exclusion NG 2)”, the “apparent KD of MS2 coat protein” value reads like this: (input ligand: FMN 200 uM) 16.4 nM; under setting [1], 14.6 nM; (input ligand: none) 20.6 nM.

Regarding “UAGGAGUCAGGAUAUGCGAGAGAUUGAAGUAUGGGAUGUGAGCAGAAGGGACAUGAGGAUCACCCAUGUAUGGA [JR_Exclu4_Sub093] (puzzle: Exclusion 4)”, the “apparent KD of MS2 coat protein” value under setting [3] was determined as 146 nM.

As to “GAUUAUGCGAGCUUUAGGGACAUGAGGAUCACCCAUGUUCGUCUUAUUGGUCUGAGUACACUAACAUACCUAAAUCU [JMF 15] (puzzle: Sensor v3, turn-off variant 1)”, the “apparent KD of MS2 coat protein” value is 18.3 nM under setting [2], 26.4 nM under setting [3] and 20.3 nM under setting [4].

For the sequence “UUGUUACAUGAGGAUCACCCAUGUGAGGAUAUGGUUCAGUACUGUAAUGUAAAGUACUCCAGAAGGCACAUGUU [1st #28] (Eterna round: R97, puzzle: Exclusion 1)”, the “apparent KD of MS2 coat protein” value reads like this: (input ligand: FMN 200 uM) 693 nM; (input ligand: none) 264 nM.

For the sequence “CCUAUGUGAGGAUAUCACUGGUCUUCUCACUGGAUGAUUAGUGAGAAGGCACAUGAGGAUCACCCAUGUCGGUG [Ex4 - 3 - 51] (Eterna round: R96, puzzle: Exclusion 4)”, the “apparent KD of MS2 coat protein” value reads like this: (input ligand: FMN 200 uM) 633 nM; under setting [1], 482 nM.

“CUUGUUUAUGUAGGAUAUACAUGAGGAUCACCCAUAGAAGGACAUGAGGAUCACCCAUGUAUUGCGGUCUGCGUUCAGAUCGCA [salish99_ExNG1_r04_101] (Eterna round: R96, puzzle: Exclusion NG 1)”: the “apparent KD of MS2 coat protein” value is, setting by setting: (input ligand: FMN 200 uM) 337 nM; under setting [1], 298 nM; (input ligand: none) 335 nM.

Take “UCACGGGAUUGAGGAUAUAUAUUAAUUUUUACAAUAGAAGGCAAAUUGUUAGAUUAUUCACUAUACAUGAGGAUCACCCAUGUU [JR_ExcBG1_Sub078] (Eterna round: R96, puzzle: Exclusion NG 1)”: under setting [1], the “apparent KD of MS2 coat protein” value amounted to 17.6 nM.

Regarding “UUUAAUUUAAUUAAGAUCACAUGAGGAUCACCCAUGUAUAUAUAGGAUAUCAGCUCGUGUAGAGCUGAGAAGGAUAUAUACAUA [ExNG3/4-A3] (Eterna round: R96, puzzle: Exclusion NG 3)”, the “apparent KD of MS2 coat protein” value reads like this: (input ligand: FMN 200 uM) 46 nM; under setting [1], 35.9 nM; (input ligand: none) 101 nM.

With “UUAUACGUUGAGGAUAUGUCAUUUAGUAUAGUUACAGAAGGCGAUACAUGAGGAUCACCCAUGUUUAUGGGCAU [Ex-6 Malc#2] (puzzle: Exclusion 6)”, the “apparent KD of MS2 coat protein” value under setting [3] stood at 166 nM.

For the sequence “GUUGUCCUUGUAAGGAUAUCCGGAUAGAGCAUAUCGGAGAAGGUACAUGAGGAUCACCCAUGUCUCACCGUGCU [Eternabot (L1) Solution 95] (Eterna round: R97, puzzle: Brourd's mod of Exclusion 4)”, the “apparent KD of MS2 coat protein” value (input ligand: FMN 200 uM) amounted to 14.4 nM and the “apparent KD of MS2 coat protein” value (input ligand: none) is 14.3 nM.

Consider “UGGUCACAUGAGGAUCACCCAUGUCAGGAUAUCGUCACUGGAGCUUCGGCUCCAGUGACGAGAAGGGAUAUAAU [E1/9-A1] (Eterna round: R97, puzzle: Exclusion 1)”, for which the “apparent KD of MS2 coat protein” value reads like this: (input ligand: FMN 200 uM) 191 nM; (input ligand: none) 57.8 nM.

As for “GUACUACGAGGAUAUAUAUAAUGGGAAGCCCAGGCCAUUGCACAUGAGGAUCACCCAUGUAGAAGGCGUGGUCA [Eternabot (L2) Solution 28] (Eterna round: R97, puzzle: Exclusion 2)”, the “apparent KD of MS2 coat protein” value reads like this: (input ligand: FMN 200 uM) 40.3 nM; (input ligand: none) 16.7 nM.

As to “AAAACGGUUCUCGUGAGGUACAUGAGGAUCACCCAUGUGAGUCAGGAUAUCCCGUCCAAGUGCGAGGAGAAGGGACGCACUUGG [Esesence] (Eterna round: R96, puzzle: Exclusion NG 3)”, the “apparent KD of MS2 coat protein” value runs as follows: (input ligand: FMN 200 uM) 190 nM; under setting [1], 103 nM; (input ligand: none) 110 nM.

As for “GUCACAUGGGUAUAGGAUCACAUGAGGAUCACCCAUGUGACUAACAAGCUUUUUGCUCGUCUUAUGUCUAUGUGAAU [Stov1/18-A2] (Eterna round: R97, puzzle: Sensor, turn-off variant 1)”, the “apparent KD of MS2 coat protein” value turned out to be 26.2 nM (input ligand: FMN 200 uM) and 32.4 nM (input ligand: none).

On to “CUAUUCCGAGGAUAUACAUGAGGAUCACCCAUGUCGGGCCUCUGGCCUAAGGCCGAAAGUAGAAGGUGGGUUUC [JL Riri mod 10] (puzzle: Exclusion 3)”, for which, under setting [3], the “apparent KD of MS2 coat protein” value came out at 54.2 nM.

In the case of “GCUGGUCGAGGAUAUACAUGAGGAUCACCCAUGUGGUUACGUGACGAUAGUCACGAAUGUAGAAGGCGACCAGC [E3/4-A1] (Eterna round: R97, puzzle: Exclusion 3)”, the “apparent KD of MS2 coat protein” value is, setting by setting: (input ligand: FMN 200 uM) 2200 nM; (input ligand: none) 295 nM.

On to “UUAUUAUAUGUAGGAUAUGCAUAUUGUUGUUAUGCAGAAGGACAUGAGGAUCACCCAUGUAUAUUAUUGUUAUGUAUUAUAUAU [Title] (Eterna round: R96, puzzle: Exclusion NG 1)”, for which the “apparent KD of MS2 coat protein” value is, setting by setting: (input ligand: FMN 200 uM) 64.7 nM; under setting [1], 23.3 nM; (input ligand: none) 37.1 nM.

As for “UCUCAGUUAGGAUAUUUAAUGUGCCGUGAGGACACGCCUUUGAAGAAGGGACAUGAGGAUCACCCAUGUGAGUA [Eternabot (L2) Solution 44] (Eterna round: R97, puzzle: Exclusion 4)”, the “apparent KD of MS2 coat protein” value is, setting by setting: (input ligand: FMN 200 uM) 47.3 nM; (input ligand: none) 26.3 nM.

For the sequence “GCAGGAUAAGUGAGGAUAUACCUAUGGAUACAUAGGUAGAAGGCACAUGAGGAUCACCCAUGUUCCUUACCUGC [Fiskers BMX 4 - 66] (puzzle: Brourd's mod of Exclusion 4)”, the “apparent KD of MS2 coat protein” value under setting [2] came to 42 nM, the “apparent KD of MS2 coat protein” value under setting [3] was 11.5 nM and the “apparent KD of MS2 coat protein” value under setting [4] is 13 nM.

Consider “UCCUCACAUGAGGAUCACCCAUGUUAGGAUAUCUCGGUGCCCUGCAGGCAGUGGCACCAGAGAAGGAACGUGCA [Querra] (puzzle: Exclusion 1)”, for which the “apparent KD of MS2 coat protein” value under setting [3] came out at 18.8 nM.

For the sequence “CUAGCGAGUGUAGGAUAUCGGACUGUUUCAGUCUGAGAAGGACAUGAGGAUCACCCAUGUAUUGCUGCGUGAGUAGCACGCUAG [JL ENG1 3.99] (Eterna round: R96, puzzle: Exclusion NG 1)”, the “apparent KD of MS2 coat protein” value reads like this: (input ligand: FMN 200 uM) 32.4 nM; under setting [1], 15.6 nM; (input ligand: none) 19.5 nM.

“CUGCUCCGUGUAGGAUAUGCAUACCACCACUAUGCAGAAGGACAUGAGGAUCACCCAUGUAUGUUAUUAUCACGUGUAGCGUCC [Design 18] (Eterna round: R96, puzzle: Exclusion NG 1)”: the “apparent KD of MS2 coat protein” value by setting is: (input ligand: FMN 200 uM) 23 nM; under setting [1], 14.9 nM; (input ligand: none) 20.6 nM.

As for “AACCUGAGGCUUUGCUUUAGGUUUACAUGAGGAUCACCCAUGUAGGAUAUGGUAGGCUUUGCUUACCAGAAGGACAUGAAAAUU [Mat - Exclusion NG 3 - Mod of JL - D28] (Eterna round: R96, puzzle: Exclusion NG 3)”, the “apparent KD of MS2 coat protein” value amounted to 225 nM (input ligand: FMN 200 uM), 40.4 nM under setting [1] and 44.2 nM (input ligand: none).
